The target in the assay is T1, FAP45 (flagellar-associated protein 45) (Chlamydomonas (endogenous in wild type …, UniProt A8I9E8 1-501)).
T1 construct: FAP45 of Chlamydomonas, a coiled-coil protein of 501 amino acids, predicted ~59 kDa; endogenous protein in the axoneme; also called FAP45/CCDC19; MIP3c; source: endogenous, isolated wild type Chlamydomonas axonemes
T1 sequence (looked up): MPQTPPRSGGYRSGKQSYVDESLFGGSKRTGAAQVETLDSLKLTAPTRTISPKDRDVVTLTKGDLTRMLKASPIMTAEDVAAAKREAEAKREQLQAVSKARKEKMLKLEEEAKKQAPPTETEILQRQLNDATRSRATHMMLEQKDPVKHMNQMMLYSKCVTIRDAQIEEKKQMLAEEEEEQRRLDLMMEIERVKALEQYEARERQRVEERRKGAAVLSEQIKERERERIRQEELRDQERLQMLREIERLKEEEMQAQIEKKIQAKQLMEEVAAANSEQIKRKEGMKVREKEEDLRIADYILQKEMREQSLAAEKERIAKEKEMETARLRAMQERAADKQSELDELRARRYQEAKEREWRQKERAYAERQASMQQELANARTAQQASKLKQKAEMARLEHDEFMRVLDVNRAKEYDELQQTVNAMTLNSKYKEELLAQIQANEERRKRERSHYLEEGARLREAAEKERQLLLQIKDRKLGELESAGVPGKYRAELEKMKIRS
The assay is described as follows: cross-linking; EDC-crosslinked wild type axonemes solubilized, crosslinked products immunoprecipitated with anti-FAP45 antibody, LC tandem MS of the precipitates. The settings on record: partners not purified.

The stoichiometry N is the number of molecules, sites or subunits per partner or assembly.

B1: FAP52 (flagellar-associated protein 52) (natural protein, UniProt A8ILK1 1-615, looked up)
chain: MAEPLVLNSVIGFGGAIENGLIAHPDGRTIIYPLGSTIVLRDRADPRSQEFLQGHSDKVSCLALSRSGRYLASGQITYMGFTADIIIWDLESKQLIHRMALHKVKVQALDFSCDERFLASLGGQDDNALVLWDVASGNAICGSPCNTNFTNCVKFFNNSPDKLITAGNFNMNVWTYDAGNNKLRPTDATLGTLKRVFKSVVVDANDEYAYCGTTTGDVLQIALERVLFKNTGPAKGNVQMGVTATCEVPTGDILVGGGDGSLQLLRKMPALAGTKVEGAITSIALADMNARGFTFFVGTAMCNIYKPATSRLKEELVQTAHNDKINGMAFPNEYSEVFATCGTGFIRLWHLTTCRELLRIAVPNLECFCIAFTTDGSAILSGWSDGKIRAFGPQSGKIIFTINDAHQKAVTAIASTADSSRILSGGEEGMVRVWRIGRTSQTLEASMKDHKGPVNCIRIKGSGDECVSASSDGSCILWDLHTFKRRTSLFANTFFKSVVYHPDESQLVTAGTDRKVTYWDAYDGNAIRIIDGSDLDEVNALAVDRDGEALVSGGGDKLVKLWGYDEGHCYFVGVAHSGAITAVGVTPDKQRIVSVGTEGGIFIWDYQRPQTLADI
notes: FAP52 of Chlamydomonas, ortholog of human WDR16, ~66 kDa, WD40 repeat protein; endogenous protein in the axoneme; also called FAP52/WDR16; MIP3a; source: endogenous, isolated wild type Chlamydomonas axonemes
Take B1: the “stoichiometry N” value was 1.

These data come from publication PMC6408466, “Inner lumen proteins stabilize doublet microtubules in cilia and flagella” (Nature Communications, 2019).
